Measured values taken from article PMC10246534.

The substances below were run against casirivimab (human) (assay: SPR; Biacore T200; […]; HBS-EP, 25 °C; 1:1 binding model).
Chain of casirivimab (human) (heavy, as listed by the source, chain 1 of 2): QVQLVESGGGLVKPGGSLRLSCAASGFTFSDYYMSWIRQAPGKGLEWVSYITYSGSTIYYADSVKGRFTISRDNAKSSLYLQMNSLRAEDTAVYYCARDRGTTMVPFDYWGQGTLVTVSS
Chain of casirivimab (human) (light, as listed by the source, chain 2 of 2): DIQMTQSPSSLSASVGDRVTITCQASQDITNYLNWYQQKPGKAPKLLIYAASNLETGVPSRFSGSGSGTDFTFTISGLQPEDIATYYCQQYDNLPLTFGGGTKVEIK

Question: For “Delta RBD + E406D (from UniProt P0DTC2) (domain or fragment)”, which Kd is on record?
Answer: 0.0071 µM

Question: How did the Kd turn out when “Delta RBD + G446S (from UniProt P0DTC2) (domain or fragment)” was run?
Answer: 0.00056 µM

Question: For “Delta RBD + G446V (from UniProt P0DTC2) (domain or fragment)”, which Kd is on record?
Answer: 0.00064 µM

Question: “Delta RBD + G446V + L455F (from UniProt P0DTC2) (domain or fragment)” was tested. Which Kd did it give?
Answer: 0.069 µM

Question: How did the Kd turn out when “Delta RBD + Y453F (from UniProt P0DTC2) (domain or fragment)” was run?
Answer: 0.067 µM

What follows are substances tested against imdevimab (human) in the same assay as above.
Chain of imdevimab (human) (heavy, as listed by the source, chain 1 of 2): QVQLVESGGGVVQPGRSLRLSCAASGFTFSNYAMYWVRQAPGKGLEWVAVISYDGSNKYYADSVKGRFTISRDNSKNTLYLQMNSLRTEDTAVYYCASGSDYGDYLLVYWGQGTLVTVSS
Chain of imdevimab (human) (light, as listed by the source, chain 2 of 2): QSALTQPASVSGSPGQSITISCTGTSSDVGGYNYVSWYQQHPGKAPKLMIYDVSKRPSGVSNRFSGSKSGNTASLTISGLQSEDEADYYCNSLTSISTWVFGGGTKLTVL

Question: “Delta RBD + E406Q (from UniProt P0DTC2) (domain or fragment)” was tested. Which Kd did it give?
Answer: 0.0089 µM

Question: “Delta RBD + G446S (from UniProt P0DTC2) (domain or fragment)” was tested. Which Kd did it give?
Answer: 0.734 µM

Question: For “Delta RBD + L455S (from UniProt P0DTC2) (domain or fragment)”, which Kd is on record?
Answer: 0.0091 µM

Question: For “Delta RBD + Y453F (from UniProt P0DTC2) (domain or fragment)”, which Kd is on record?
Answer: 0.0098 µM

These substances were tested against sotrovimab in the same assay as above.

Question: “BA.1 RBD + E340A (from UniProt P0DTC2) (domain or fragment)” was tested. Which Kd did it give?
Answer: 3.42 µM

Question: How did the Kd turn out when “BA.1 RBD + E340D (from UniProt P0DTC2) (domain or fragment)” was run?
Answer: 0.764 µM

Question: “BA.1 RBD + E340K (from UniProt P0DTC2) (domain or fragment)” was tested. Which Kd did it give?
Answer: 3.44 µM

Question: How did the Kd turn out when “BA.1 RBD + E340V (from UniProt P0DTC2) (domain or fragment)” was run?
Answer: 0.345 µM

Question: Which Kd does the source give for “BA.1 RBD + P337R (from UniProt P0DTC2) (domain or fragment)” here?
Answer: 0.753 µM

Question: Which Kd does the source give for “BA.1 RBD + P337S (from UniProt P0DTC2) (domain or fragment)” here?
Answer: 0.332 µM
